Substitutions are numbered along the chain they refer to. Like-named read-outs stand apart in the source and are kept apart here. Ends that are not written are not given here.
B1: scR8 (ligand)
chain: EQKLISEEDLQLYSALANKCCHVGCTKRSLARFCGGGSGGGSGGGSSWMEEVIKLCGRELVRAQIAICGMSTWS
B2: scR11 (ligand)
chain: QLYSALANKCCHVGCTKRSLARFCGGGSGCGGSGSWMEEVIKLCGRELVRAQIAICGMSTWS
B3: scR12 (ligand)
chain: B2 chain with C30K
B4: scR9 (ligand)
chain: EQKLISEEDLQLYSALANKCCHVGCTKRSLARFCGGGSGGGSGGGSGSWMEEVIKLCGRELVRAQIAICGMSTWS
B5: scR17 (ligand)
chain: EQKLISEEDLDVLAGLSSSCCKWGCSKSEISSLCGGGSGGGSGSWMEEVIKLCGRELVRAQIAICGMSTWS
B6: scR-Var1 (ligand)
chain: QLYSALANKCCHVGCTKRSLARFCGGGSGGGSGSWMEEVIKLCGRELVRAQIAICGMSTWSGGSGCG
B7: scR-Fc 10 (Fc fusion)
chain: QLYSALANKCCHVGCTKRSLARFCGGGSGGGSGSWMEEVIKLCGRELVRAQIAICGMSTWSGGSGGSGGSPTCPTCHKCPVPELLGGPSVFIFPPKPKDILLISQNAKVTCVVVDVSEEEPDVQFSWFVNNVEVHTAQTQPREEQYNSTFRVVSALPIQHQDWMSGKEFKCKVNNKALPSPIEKTISKPKGLVRKPQVYVMGPPTEQLTEQTVSLTCLTSGFLPNDIGVEWTSNGHIEKNYKNTEPVMDSDGSFFMYSKLNVERSRWDSRAPFVCSVVHEGLHNHHVEKSISRPPGKHHHHHH
B8: scR14 (ligand)
chain: DVLAGLSSSCCKWGCSKSEISSLCGGGSGGGSGRAAPYGVRLCGREFIRAVIFTCGGSRW
modifications: ends and bridges not checked; cysteine pairing not given here
B9: scR-Var2 (ligand)
chain: GCGSGGQLYSALANKCCHVGCTKRSLARFCGGGSGGGSGSWMEEVIKLCGRELVRAQIAICGMSTWS
B10: scR-Fc 17 (Fc fusion)
chain: QLYSALANKCCHVGCTKRSLARFCGGGSGGGSGSWMEEVIKLCGRELVRAQIAICGMSTWSGSGSGSPTCPTCHKCPVPELLGGPSVFIFPPKPKDILLISQNAKVTCVVVDVSEEEPDVQFSWFVNNVEVHTAQTQPREEQYNSTFRVVSALPIQHQDWMSGKEFKCKVNNKALPSPIEKTISKPKGLVRKPQVYVMGPPTEQLTEQTVSLTCLTSGFLPNDIGVEWTSNGHIEKNYKNTEPVMDSDGSFFMYSKLNVERSRWDSRAPFVCSVVHEGLHNHHVEKSISRPPGK
B11: human Relaxin 2 (ligand)
chain 1: QLYSALANKCCHVGCTKRSLARFC
chain 2: SWMEEVIKLCGRELVRAQIAICGMSTWS
B12: scR7 (ligand)
chain: EQKLISEEDLQLYSALANKCCHVGCTKRSLARFCGGGSGGSWMEEVIKLCGRELVRAQIAICGMSTWS
B13: scR5 (ligand)
chain: EQKLISEEDLQLYSALANKCCHVGCTKRSLARFCGGGSGGGSGGGSWMEEVIKLCGRELVRAQIAICGMSTWSYPYDVPDYAHHHHHH
B14: scR15 (ligand)
chain: EQKLISEEDLDVLAGLSSSCCKWGCSKSEISSLCGGGSGGGSGRAAPYGVRLCGREFIRAVIFTCGGSRW
B15: scR-Fc 11 (Fc fusion)
chain: HHHHHHPTCPTCHKCPVPELLGGPSVFIFPPKPKDILLISQNAKVTCVVVDVSEEEPDVQFSWFVNNVEVHTAQTQPREEQYNSTFRVVSALPIQHQDWMSGKEFKCKVNNKALPSPIEKTISKPKGLVRKPQVYVMGPPTEQLTEQTVSLTCLTSGFLPNDIGVEWTSNGHIEKNYKNTEPVMDSDGSFFMYSKLNVERSRWDSRAPFVCSVVHEGLHNHHVEKSISRPPGKGGSPQLYSALANKCCHVGCTKRSLARFCGGGSGGGSGSWMEEVIKLCGRELVRAQIAICGMSTWS
B16: scR-Fc 9 (Fc fusion)
chain: QLYSALANKCCHVGCTKRSLARFCGGGSGGGSGSWMEEVIKLCGRELVRAQIAICGMSTWSGGSGGSPTCPTCHKCPVPELLGGPSVFIFPPKPKDILLISQNAKVTCVVVDVSEEEPDVQFSWFVNNVEVHTAQTQPREEQYNSTFRVVSALPIQHQDWMSGKEFKCKVNNKALPSPIEKTISKPKGLVRKPQVYVMGPPTEQLTEQTVSLTCLTSGFLPNDIGVEWTSNGHIEKNYKNTEPVMDSDGSFFMYSKLNVERSRWDSRAPFVCSVVHEGLHNHHVEKSISRPPGKHHHHHH
B17: scR10 (ligand)
chain: EQKLISEEDLQLYSALANKCCHVGCTKRSLARFCGGGSGGGSGGGSGGSWMEEVIKLCGRELVRAQIAICGMSTWS
B18: human Relaxin 3 (ligand)
chain 1: DVLAGLSSSCCKWGCSKSEISSLC
chain 2: RAAPYGVRLCGREFIRAVIFTCGGSRW
B19: scR-Fc 13 (Fc fusion)
chain: HHHHHHPTCPTCHKCPVPELLGGPSVFIFPPKPKDILLISQNAKVTCVVVDVSEEEPDVQFSWFVNNVEVHTAQTQPREEQYNSTFRVVSALPIQHQDWMSGKEFKCKVNNKALPSPIEKTISKPKGLVRKPQVYVMGPPTEQLTEQTVSLTCLTSGFLPNDIGVEWTSNGHIEKNYKNTEPVMDSDGSFFMYSKLNVERSRWDSRAPFVCSVVHEGLHNHHVEKSISRPPGKGGSGGSGGSPQLYSALANKCCHVGCTKRSLARFCGGGSGGGSGSWMEEVIKLCGRELVRAQIAICGMSTWS
B20: scR4 (ligand)
chain: EQKLISEEDLQLYSALANKCCHVGCTKRSLARFCGGGSGGGSGSWMEEVIKLCGRELVRAQIAICGMSTWSYPYDVPDYAHHHHHH
B21: scR-Fc 8 (Fc fusion)
chain: QLYSALANKCCHVGCTKRSLARFCGGGSGGGSGSWMEEVIKLCGRELVRAQIAICGMSTWSGGSPTCPTCHKCPVPELLGGPSVFIFPPKPKDILLISQNAKVTCVVVDVSEEEPDVQFSWFVNNVEVHTAQTQPREEQYNSTFRVVSALPIQHQDWMSGKEFKCKVNNKALPSPIEKTISKPKGLVRKPQVYVMGPPTEQLTEQTVSLTCLTSGFLPNDIGVEWTSNGHIEKNYKNTEPVMDSDGSFFMYSKLNVERSRWDSRAPFVCSVVHEGLHNHHVEKSISRPPGKHHHHHH
B22: scR3 (ligand)
chain: EQKLISEEDLQLYSALANKCCHVGCTKRSLARFCGGGSGGGSWMEEVIKLCGRELVRAQIAICGMSTWSYPYDVPDYAHHHHHH
B23: scR-Fc 12 (Fc fusion)
chain: HHHHHHPTCPTCHKCPVPELLGGPSVFIFPPKPKDILLISQNAKVTCVVVDVSEEEPDVQFSWFVNNVEVHTAQTQPREEQYNSTFRVVSALPIQHQDWMSGKEFKCKVNNKALPSPIEKTISKPKGLVRKPQVYVMGPPTEQLTEQTVSLTCLTSGFLPNDIGVEWTSNGHIEKNYKNTEPVMDSDGSFFMYSKLNVERSRWDSRAPFVCSVVHEGLHNHHVEKSISRPPGKGGSGGSPQLYSALANKCCHVGCTKRSLARFCGGGSGGGSGSWMEEVIKLCGRELVRAQIAICGMSTWS

Tests used:
[1] = molecular target: T1, human LGR7/RXFP1 receptor (human, UniProt Q9HBX9 1-757); experiment: cell-based or functional assay
T1 sequence (looked up): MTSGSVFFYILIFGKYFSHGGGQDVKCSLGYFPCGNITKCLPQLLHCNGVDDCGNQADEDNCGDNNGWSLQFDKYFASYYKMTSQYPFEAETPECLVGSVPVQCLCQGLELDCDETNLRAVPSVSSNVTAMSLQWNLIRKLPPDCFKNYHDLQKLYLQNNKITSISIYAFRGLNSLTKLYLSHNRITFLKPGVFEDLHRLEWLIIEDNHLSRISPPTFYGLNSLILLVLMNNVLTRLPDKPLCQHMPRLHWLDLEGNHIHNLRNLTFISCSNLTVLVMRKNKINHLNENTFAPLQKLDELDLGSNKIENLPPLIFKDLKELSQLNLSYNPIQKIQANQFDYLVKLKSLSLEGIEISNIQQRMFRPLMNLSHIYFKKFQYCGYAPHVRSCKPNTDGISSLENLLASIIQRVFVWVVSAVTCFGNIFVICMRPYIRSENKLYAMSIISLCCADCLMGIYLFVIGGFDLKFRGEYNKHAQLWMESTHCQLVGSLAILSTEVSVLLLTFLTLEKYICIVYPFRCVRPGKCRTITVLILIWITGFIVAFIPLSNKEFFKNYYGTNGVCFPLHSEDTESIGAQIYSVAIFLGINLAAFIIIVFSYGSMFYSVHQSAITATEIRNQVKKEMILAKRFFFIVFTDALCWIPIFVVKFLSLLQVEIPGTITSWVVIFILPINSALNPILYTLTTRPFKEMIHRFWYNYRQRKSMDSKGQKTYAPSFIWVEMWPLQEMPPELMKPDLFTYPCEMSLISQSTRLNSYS

[2] = molecular target: T1, human LGR7/RXFP1 receptor; experiment: cell-based or functional assay; remark: listed apart in the source

Binder | EC50 (M), CRE-luciferase reporter in CHO-CRE-LGR7 cells [1] [M] | EC50 (M), CRE-luciferase reporter in CHO-CRE-LGR7 cells [2] [M]
B1 | 2.4e-08 | –
B2 | 2.5e-08 | –
B3 | 3.6e-08 | –
B4 | 1.1e-07 | –
B5 | 1.3e-08 | –
B6 | – | 1.1e-07
B7 | – | 4.8e-09
B8 | 5.9e-10 | –
B9 | – | 4.2e-08
B10 | – | 2.5e-09
B11 | 2.6e-11 | 3.5e-11
B12 | 5.3e-08 | –
B13 | 3.7e-11 | –
B14 | 6.2e-10 | –
B15 | – | 1.2e-09
B16 | – | 9.9e-09
B17 | 4.4e-08 | –
B18 | 2.3e-09 | –
B19 | – | 8.9e-10
B20 | 3.4e-11 | –
B21 | – | 7.2e-09
B22 | 7.7e-11 | –
B23 | – | 9.5e-10
